In assay [1] the target is Type 1 human interferon receptor complex (human) (UniProt P17181).
Assay [2] has the same target. Briefly: 125I-ligand binding to T98G cells at +4° C., Scatchard analysis, high affinity component.

On to IFN-alphaCon1 (ligand), for which the antiviral specific activity (EMCV on T98G cells) in assay [1] turned out to be 3e+09 U/mg protein. The Kd (as a rule, the constant that tells how readily two partners part at equilibrium) in assay [2] was determined as 7.7 pM.
In the case of IFN-alpha1 Nδ4 (ligand), the antiviral specific activity (EMCV on T98G cells) in assay [1] came to 7.1e+06 U/mg protein.

The values are drawn from patent publication US5684129.
